From paper PMC2377097, “Unc45b Forms a Cytosolic Complex with Hsp90 and Targets the Unfolded Myosin Motor Domain” (PLoS ONE, 2008)

Biological target: the molecule itself
Assay: SEC; Superose 6 HR 10/300, 50 mM Tris-HCl pH 7.4, 150 mM NaCl, 1 mM DTT; purified proteins run alone or as a complex formed from equimolar amounts

B1: rabbit reticulocyte lysate Hsp90 (natural protein)
chain: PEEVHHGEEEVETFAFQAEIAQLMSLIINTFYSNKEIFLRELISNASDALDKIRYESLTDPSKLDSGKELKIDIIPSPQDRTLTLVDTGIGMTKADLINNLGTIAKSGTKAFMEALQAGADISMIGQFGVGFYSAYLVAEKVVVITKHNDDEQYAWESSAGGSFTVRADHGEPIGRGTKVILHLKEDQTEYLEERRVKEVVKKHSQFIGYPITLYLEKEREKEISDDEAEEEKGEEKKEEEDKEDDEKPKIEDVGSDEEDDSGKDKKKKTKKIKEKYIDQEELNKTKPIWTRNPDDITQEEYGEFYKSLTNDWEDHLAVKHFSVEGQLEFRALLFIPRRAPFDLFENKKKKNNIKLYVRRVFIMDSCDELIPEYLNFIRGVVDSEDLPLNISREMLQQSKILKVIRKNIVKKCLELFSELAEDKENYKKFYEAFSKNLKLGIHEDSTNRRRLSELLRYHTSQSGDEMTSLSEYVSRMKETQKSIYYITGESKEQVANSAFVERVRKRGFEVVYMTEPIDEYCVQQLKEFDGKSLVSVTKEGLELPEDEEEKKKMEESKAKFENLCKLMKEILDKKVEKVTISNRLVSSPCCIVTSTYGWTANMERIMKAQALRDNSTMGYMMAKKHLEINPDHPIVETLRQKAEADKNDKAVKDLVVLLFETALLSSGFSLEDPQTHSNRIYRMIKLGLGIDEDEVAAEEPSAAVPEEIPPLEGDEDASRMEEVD
Q: For B1, which “stoichiometry N” value is on record?
A: 2
